For the assay, the target named is T1, human p75^NTR JXT domain (K273-D332) (human, UniProt P08138 273-332).
T1 sequence (looked up): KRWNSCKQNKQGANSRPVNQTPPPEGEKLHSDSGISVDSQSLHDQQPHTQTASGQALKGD
The assay can be described thus: NMR titration.

B1: RhoGDI NTD^S34D (A2-A60) (domain or fragment, human, UniProt P52565 2-60, looked up)
chain: AEQEPTAEQLAQIAAENEEDEHSVNYKPPAQKDIQEIQELDKDDESLRKYKEALLGRVA
On to B1, for which the binding result is given as “binds”.

For the origin of these results see paper doi:10.1101/2023.10.13.562155 (bioRxiv, 2023).
